From publication PMC3229523, “Identification of Lactoferricin B Intracellular Targets Using an Escherichia coli Proteome Chip” (PLoS ONE, 2011)
Ends that are not written are not given here. * marks the point of attachment. Biotin = O=C1N[C@H]2[C@H](CS[C@H]2CCCCC(=O)*)N1

How the values were obtained:
Test in all cases: peptide or protein array; E. coli proteome chip: purified His-tagged proteins printed in duplicate on Fullmoon slides, blocked with 1% BSA; 10 nM N-terminal biotinylated LfcinB with 1% BSA, room temperature, 1 h; detected with DyLight 649-labeled streptavidin, ratio to DyLight 549-labeled anti-His antibody; ProCAT normalisation, local cut-off; triplicate chips
Conditions in all cases: both partners purified
[1] = biological target: T1, RfaD (E. coli K-12, UniProt P67910 1-310)
T1 construct: RfaD, E. coli K-12
T1 sequence (looked up): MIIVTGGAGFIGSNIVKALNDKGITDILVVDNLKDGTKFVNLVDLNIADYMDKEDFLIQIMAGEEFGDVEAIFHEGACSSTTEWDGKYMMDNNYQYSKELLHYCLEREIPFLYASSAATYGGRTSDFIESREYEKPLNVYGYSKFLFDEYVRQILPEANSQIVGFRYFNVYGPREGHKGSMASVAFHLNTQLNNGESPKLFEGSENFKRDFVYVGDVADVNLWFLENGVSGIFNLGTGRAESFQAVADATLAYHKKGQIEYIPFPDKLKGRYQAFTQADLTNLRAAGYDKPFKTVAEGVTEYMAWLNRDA

[2] = biological target: T2, AtpH (E. coli K-12, UniProt P0ABA4 1-177)
T2 construct: AtpH, E. coli K-12

[3] = biological target: T3, RfaS (E. coli K-12, UniProt P27126 1-311)
T3 construct: RfaS, E. coli K-12
T3 sequence (looked up): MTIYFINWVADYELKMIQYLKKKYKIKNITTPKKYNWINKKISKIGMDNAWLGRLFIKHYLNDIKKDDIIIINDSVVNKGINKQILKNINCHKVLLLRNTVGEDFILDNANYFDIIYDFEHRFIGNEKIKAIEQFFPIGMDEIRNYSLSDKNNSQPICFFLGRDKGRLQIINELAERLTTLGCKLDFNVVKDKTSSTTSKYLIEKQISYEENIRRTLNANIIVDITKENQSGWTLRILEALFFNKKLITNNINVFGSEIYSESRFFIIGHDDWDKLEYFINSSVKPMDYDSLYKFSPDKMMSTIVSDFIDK

[4] = biological target: T4, BasR (E. coli K-12, UniProt P30843 1-222)
T4 construct: BasR, E. coli K-12
T4 sequence (looked up): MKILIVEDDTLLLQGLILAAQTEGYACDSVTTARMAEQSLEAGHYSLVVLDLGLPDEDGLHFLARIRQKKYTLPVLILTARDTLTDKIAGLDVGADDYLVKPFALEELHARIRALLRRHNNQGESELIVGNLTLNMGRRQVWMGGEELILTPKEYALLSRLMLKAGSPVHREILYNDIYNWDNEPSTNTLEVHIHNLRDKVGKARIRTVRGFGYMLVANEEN

[5] = biological target: T5, YhjC (E. coli K-12, UniProt P37641 1-299)
T5 construct: YhjC, E. coli K-12
T5 sequence (looked up): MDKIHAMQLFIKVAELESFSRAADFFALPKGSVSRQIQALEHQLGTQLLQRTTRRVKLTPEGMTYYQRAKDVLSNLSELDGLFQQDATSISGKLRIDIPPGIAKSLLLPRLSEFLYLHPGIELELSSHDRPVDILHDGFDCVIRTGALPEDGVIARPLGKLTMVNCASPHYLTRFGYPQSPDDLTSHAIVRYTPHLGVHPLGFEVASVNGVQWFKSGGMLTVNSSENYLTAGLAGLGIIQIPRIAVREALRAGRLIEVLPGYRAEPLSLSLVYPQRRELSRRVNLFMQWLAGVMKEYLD

[6] = biological target: T6, YcaO (E. coli K-12, UniProt P75838 1-586)
T6 construct: YcaO, E. coli K-12

Measured: binding result

T6 sequence (P75838 whole entry): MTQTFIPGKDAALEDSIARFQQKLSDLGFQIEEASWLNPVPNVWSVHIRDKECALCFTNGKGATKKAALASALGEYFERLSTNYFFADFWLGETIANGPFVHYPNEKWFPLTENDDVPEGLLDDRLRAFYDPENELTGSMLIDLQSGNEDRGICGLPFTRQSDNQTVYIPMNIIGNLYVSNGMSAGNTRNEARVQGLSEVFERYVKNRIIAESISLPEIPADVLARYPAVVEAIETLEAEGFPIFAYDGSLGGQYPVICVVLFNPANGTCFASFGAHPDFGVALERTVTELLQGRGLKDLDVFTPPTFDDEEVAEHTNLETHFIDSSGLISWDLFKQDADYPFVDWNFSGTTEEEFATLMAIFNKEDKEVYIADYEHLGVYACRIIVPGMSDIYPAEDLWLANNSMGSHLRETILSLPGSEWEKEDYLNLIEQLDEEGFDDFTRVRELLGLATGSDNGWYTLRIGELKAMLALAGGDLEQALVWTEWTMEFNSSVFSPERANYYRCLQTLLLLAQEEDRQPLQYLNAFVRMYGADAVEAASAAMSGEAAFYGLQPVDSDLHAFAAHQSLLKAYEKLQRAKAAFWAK
T2 sequence (P0ABA4 whole entry): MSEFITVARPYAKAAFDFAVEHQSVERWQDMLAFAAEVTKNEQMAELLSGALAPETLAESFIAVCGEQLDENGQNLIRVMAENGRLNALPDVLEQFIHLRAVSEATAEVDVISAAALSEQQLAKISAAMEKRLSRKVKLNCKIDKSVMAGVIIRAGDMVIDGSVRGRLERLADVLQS

B1: N-terminal biotinylated Lactoferricin B (peptide, UniProt P24627 36-60, looked up)
peptide: Biotin-FKCRRWQWRMKKLGAPSITCVRRAF
modifications: ends and bridges not checked
notes: lactoferricin B (LfcinB), cationic antimicrobial peptide of 25 amino acids; also called biotinylated LfcinB; biotin-labeled LfcinB; source: bought: Kelowna Inc
binds: all assays above
